Measured values reported in patent US20030143735A1 (University of Pennsylvania, published 2003).

Biological target: T1, HIV-1 p55gag precursor polyprotein (HIV-1, UniProt P04591 1-500)
T1 construct: In vitro translated control protein
Assay: coimmunoprecipitation of 35S-labeled in vitro translated proteins, SDS-PAGE

B1: human Vpr Interacting Protein (hVIP), 35S-labeled, in vitro translated (other)
chain: MHARAAASVMDICRIRLDHAVSMSTFFFFLSSGMEVDAAVVPSVMACGVTGSVSVALHPLVILNISDHWIRMRSHQGRPVQVIGALIGKQEGRNIEVMNSFELLSHTVEEKIIIDKEYYYTKEEQFKQVFKELEFLGWYTTGGPPDPSDIHVHKQCCEIIESPLFLKLNPMTKHTDLPVSVFESVIDIINGEATMLFAELTYTLATEEAERIGVDHVARMTATGSGENSTVAEHLIAQHSAIKMLHSRVKLILEYVKASEAGEVPFNHEILREAYALCHCLPVLSTDKFKTDFYDQCNDVGLMAYLGTITKTCNTMNQFVNKFNVLYDRQGIGRRMRGLFF
modifications: 35S radiolabel
notes: In vitro translated hVIP of the coimmunoprecipitation assay; Anti-Express antibody was among the antibodies used, so it may have
binding result: no binding
